# Reference: patent US9072737B2, “tPA mutant in the treatment of acute brain injury and neurodegenerative disorders” (HADASIT MEDICAL RESEARCH SERVICES & DEVELOPMENT LTD., priority 2008, dated 2015)
# “Also recorded” adds a separate entry of the source.
# B1: WT tPA: Recombinant wild type human tissue plasminogen activator expressed in S2 Drosophila system, SEQ ID NO. 2 (protein, listed as Homo sapiens)
# chain: GARSYQVICRDEKTQMIYQQHQSWLRPVLRSNRVEYCWCNSGRAQCHSVPVKSCSEPRCFNGGTCQQALYFSDFVCQCPEGFAGKCCEIDTRATCYEDQGISYRGTWSTAESGAECTNWNSSALAQKPYSGRRPDAIRLGLGNHNYCRNPDRDSKPWCYVFKAGKYSSEFCSTPACSEGNSDCYFGNGSAYRGTHSLTESGASCLPWNSMILIGKVYTAQNPSAQALGLGKHNYCRNPDGDAKPWCHVLKNRRLTWEYCDVPSCSTCGLRQYSQPQFRIKGGLFADIASHPWQAAIFAKHRRSPGERFLCGGILISSCWILSAAHCFQERFPPHHLTVILGRTYRVVPGEEEQKFEVEKYIVHKEFDDDTYDNDIALLQLKSDSSRCAQESSVVRTVCLPPADLQLPDWTECELSGYGKHEALSPFYSERLKEAHVRLYPSSRCTSQHLLNRTVTDNMLCAGDTRSGGPQANLHDACQGDSGGPLVCLNDGRMTLVGIISWGLGCGQKDVPGVYTKVTNYLDWIRDNMRP
# B2: tPA-S481A: Recombinant human tPA with Ser481 to Ala point mutation, catalytically inactive, two extra N-terminal residues RS, SEQ ID NO. 1 (protein, listed as Homo sapiens)
# chain: RSGARSYQVICRDEKTQMIYQQHQSWLRPVLRSNRVEYCWCNSGRAQCHSVPVKSCSEPRCFNGGTCQQALYFSDFVCQCPEGFAGKCCEIDTRATCYEDQGISYRGTWSTAESGAECTNWNSSALAQKPYSGRRPDAIRLGLGNHNYCRNPDRDSKPWCYVFKAGKYSSEFCSTPACSEGNSDCYFGNGSAYRGTHSLTESGASCLPWNSMILIGKVYTAQNPSAQALGLGKHNYCRNPDGDAKPWCHVLKNRRLTWEYCDVPSCSTCGLRQYSQPQFRIKGGLFADIASHPWQAAIFAKHRRSPGERFLCGGILISSCWILSAAHCFQERFPPHHLTVILGRTYRVVPGEEEQKFEVEKYIVHKEFDDDTYDNDIALLQLKSDSSRCAQESSVVRTVCLPPADLQLPDWTECELSGYGKHEALSPFYSERLKEAHVRLYPSSRCTSQHLLNRTVTDNMLCAGDTRSGGPQANLHDACQGDAGGPLVCLNDGRMTLVGIISWGLGCGQKDVPGVYTKVTNYLDWIRDNMRP
# Columns and labels:
# CHI mice [1] = assay: Neurological severity score (NSS) in closed head injury (CHI) model; format: in vivo; conditions: for NSS at day 20 following CHI: FIG. 2, 100 μg/mice i.p. two hours after CHI, compared with saline control
# Description: Briefly, after induction of ether anesthesia, a midline longitudinal incision was made, the skin was retracted and the skull was exposed. The left anterior frontal area was identified and a Teflon tipped cone (2-mm diameter) was placed 1 mm lateral to the midline, in the midcoronal plane. The head was held in place manually and a 75-g weight was dropped on the cone from a height of 18 cm, resulting in focal injury to the left hemisphere. […] In sham controls only anesthesia and skin incision were carried out.
# Animals were awarded one point for failure to perform one item, so that scores can range from zero (healthy uninjured animals) to a maximum of 10, indicating severe neurological dysfunction, with failure to perform all tasks. The NSS obtained 1 h after trauma reflects the initial severity of injury and is inversely correlated with the neurological outcome. Animals were evaluated 5 h after CHI, and every two to three days until 20 days later. Each animal was assessed by an observer who was blinded to the treatment.
# tPA has been reported to signal within the central nervous system by activating NMDA-R, a receptor for glutamine, implicated in neurotoxicity and exictotoxic neuronal cell death, through the cleavage of the NR-1 subunit of NMDA-R. The inventors therefore examined the effect of inhibiting tPA activation of NMDA-R on acute brain trauma, using a tPA mutated molecule devoid of serine protease catalytic activity. […] The effect of administering mutant tPA compositions was assessed using neurobehavioral evaluation based on the determination of a neurological severity score (NSS).
# [2] = test system: Blood Brain Barrier (BBB); assay: Blood brain barrier permeability, Evans blue uptake into brain; format: in vivo, mice; conditions: single i.p. injection 1 mg/kg, FIG. 3 and FIG. 4A
# Procedure: The uptake of Evans blue dye into a brain tissue served as a marker to for quantifying disruption of the blood-brain barrier and increase in permeability of the BBB. […] Data was expressed as absorbance at 620 nm per gram of tissue. The mean±SEM of data from 8-9 animals/group are shown.
# FIG. 4A. Mice were injected i.p. with 25 μl of saline or saline containing either WT-tPA or mtPA (1 mg/kg each) alone or together with PAI-1 derived 18 amino acids (aa) (as denoted by SEQ ID NO. 8) or 6 aa (as denoted by SEQ ID NO. 3) peptides (1 mg/kg each). Ten minutes later, the mice were given an i.v. injection of 2% Evans blue (EB) in saline. One hour after injection of dye, organs were cleared of blood by transcardiac perfusion. […] Extruded dye was quantified by absorbance at 620 nm. The figure presents a histogram illustration of the absorbance of EB at […] per gram of tissue. […]
# To determine the effect of injection of tPA-S^481A on BBB function, anesthetized mice were injected i.p. with 25 μl of saline or saline containing tPA or tPA mutant (tPA-Ser^481Ala) (1 mg/kg each), followed by the intravenous injection of 2% Evans blue in saline. Evans blue was quantified by absorbance at 620 nm.
# Plasminogen activator inhibitor-1 (PAI-1) is recognized as the inhibitor of tPA. […] Extruded dye was quantified by absorbance at 620 nm. Data are expressed in FIG. 4A as absorbance per gram of tissue.
# CHI mice [3] = assay: Brain lesion size at day 20 post CHI; format: in vivo; conditions: p<0.005 vs control animals
# Procedure: After the last NSS evaluation (day 20 post CHI) the brains were then extracted and sectioned coronally into 1-mm segments. The sections were photographed and the area of each section was determined using the NIH computer image analysis program. Any missing area was estimated by overlaying the affected section with images from the contralateral side from the same animal. The volume of the missing portion of the brain was defined as the sum of the missing areas in all sections multiplied by their thickness expressed in cubic pixels. […] Taken together, the data collected indicate that the tPA-S481A has a neuroprotective effect.
# [4] = test system: Blood Brain Barrier (BBB) after CHI; assay: Duration of BBB permeability after CHI, Evans blue extravasation; format: in vivo, mice; conditions: mtPA i.p. 1, 2 or 3 hours after CHI; EB measured one hour after dye; FIG. 5
# Procedure: Mice were treated with i.p. injection of mtPA 1, 2 or 3 hours after CHI. Five minutes after mtPA injection, the animals were given an IV injection of 2% Evans blue (EB) in saline. Extravasation of EB was measured one hour after injection of the dye. The figure presents a histogram illustration of the absorbance of EB at 620 nM per gram of tissue. The mean±SEM of data from 8-9 animals/group is shown. Abbreviations: Abs (Absorbance), T (time), h (hour), min. (minutes).
# To examine the effect of tPA-S481A (mtPA) on BBB permeability after opening due to CHI, the tPA mutant was injected to 8-9 mice i.p. 1, 2 or 3 hours after CHI. Mice undergoing CHI alone served as controls for the indication of normal BBB behavior after head trauma. In both groups, the extravasation of EB was measured one hour after injection of the dye.
# CHI mice [5] = assay: Lactate and glutamate concentration in CSF after CHI; format: in vivo; conditions: 100 μg/mice i.p. two hours after CHI
# Procedure: CSF samples were taken from the cisterna magna in anaesthetized mice, using a microcapillary as described by others. Samples were immediately frozen at −70° C. until analysis by high-performance liquid chromatography (HPLC). Glutamate and lactate were derivatized using ortho-phthaldialdehyde/b-mercaptoethanol and the samples were injected onto the column. Peaks were detected using a fluorescence detector.
# Therefore, groups of 8-9 animals were injected with mutant tPA, (100 μg/mice) in saline or saline alone intraperitoneally (i.p.) two hours after the head trauma and, the concentration of lactate and glutamate in the CSF have been measured.
# plasminogen = assay: PA catalytic activity of tPA mutant; format: biochemical; conditions: data not shown
# Description: Tissue type plasminogen activator (tPA) a multidomain, glycosylated, serine protease is a fibrin specific activator of plasminogen and a very effective thrombolytic agent. It should be appreciated that “mutated tPA” or “mtPA” as used herein includes a mutated native tPA and recombinant mutated tPA, as well as modified forms of tPA that is devoid of the enzymatic activities of native tPA. More specifically, as used herein in the specification and in the claims section below, the term “devoid of protease or serine protease catalytic activity” and its derivatives refers to a mutated tPA molecule having impaired, decreased or reduced expression of activity. A preferred mutated tPA molecule lacks any catalytic activity. According to one embodiment of the present invention at least about 10-100%, more specifically, about 10%, 15%, 20%, 25%, 30%, 35%, 40%, 45%, 50%, 55%, 60%, 65%, 70%, 75%, 80%, 85%, 90%, 95%, 99% and even 100% of the tPA activity is abolished by the point mutation performed by the invention, as compared to the WT (wild type) tPA activity. It should be noted that the enzymatic activity of tPA can be measured by assessing the ability of the molecule to convert plasminogen to plasmin.
molecule,measurement,setting,value
B1,NSS at day 20 following CHI,CHI mice [1],significantly higher than that of control mice
same,BBB permeability (Evans blue absorbance at 620 nm per gram of tissue),[2],increased BBB permeability
same,Lesion size (volume of missing portion of the brain),CHI mice [3],167289±31456 pixels
B2,neurological severity score (NSS),"CHI mice [1]; FIG. 1, 100 μg/mice i.p. two hours after head trauma, 10-point scale",0.43
same,NSS at day 20 following CHI,CHI mice [1],significantly improved initial (not shown) and long-term (FIG. 2) neurological outcome
same,BBB permeability (Evans blue absorbance at 620 nm per gram of tissue),[2]; 1 mg/kg,increased BBB permeability similar to the results of wild type; also recorded: increases BBB permeability to the same extent as WT-tPA
same,duration of increased BBB permeability after CHI,[4],markedly extended the duration of increased BBB permeability
same,Lesion size (volume of missing portion of the brain),CHI mice [3],41525±10987 pixels
same,accumulation of lactate in CSF post-TBI,CHI mice [5]; FIG. 6A,clearly alleviates the accumulation
same,accumulation of glutamate in CSF post-TBI,CHI mice [5]; FIG. 6B,clearly alleviates the accumulation
same,PA catalytic activity,plasminogen,lacks any PA catalytic activity
